Assay results reported in PMC4307304, “The Oxidative Fermentation of Ethanol in Gluconacetobacter diazotrophicus Is a Two-Step Pathway Catalyzed by a Single Enzyme: Alcohol-Aldehyde Dehydrogenase (ADHa)” (International Journal of Molecular Sciences, 2015).

Experiments:
purified protein = substrate: CCO; assay: purified protein; settings: quinone analogue Q1 or Q2 100 uM, pH 6.0 phosphate, 30 °C, Triton X-100
[1] = substrate: CC=O; assay: oxygen consumption (Clark electrode), oxidase activity of purified ADHa coupled to ADH-deficient Ga. diazotrophicus membranes; type: biochemical, Gluconacetobacter diazotrophicus; settings: quinone analogue Q1 or Q2 100 uM, pH 6.0 phosphate, 30 °C, Triton X-100, text b13 calls the acetaldehyde constants of both assays the same, although the table prints 3.7 × 10^−4 for the dehydrogenase
Source text: oxygen consumption (Clark electrode), oxidase activity of purified ADHa coupled to ADH-deficient Ga. diazotrophicus membranes on ADHa

B1: ADHa (Gluconacetobacter diazotrophicus PA1 5) (protein)
chain: ESEFGATGEAIIHADDHPGDWLTYGRTYSEQRYSPLDQINRSNVGNLKLAWYYDLDTNRGQEGTPLIVDGVMYATTNWSKMKALDAATGKLLWAYDPRVPGNIADKGCCDTVNRGAAYWNGKVYFGTFDGRLIALDAKTGKLVWSVNTIPADAALGHQRSYTVDGAPRIAKGRVIIGNGGSEFGARGFVSAFDAETGKLDWRFYTVPNAQNKPDNAPSDAVLMSKAYPTWSPTGAWTTQGGGGTVWDSIVYDPVTDLVYLGVGNGSPWNYKFRSDGKGDNLFLGSIVALKPETGEYVWHFQETPMDQWDYTSVQQIMTLDLPINGQTRHVIVHAPKNGFFYIIDAKTGEFLSGKNYVYVNWASGLDPKTGRPIYNPDALYTLNGKEWYGIPGDLGGHNFAAMAFSPRTGLVYIPAQQVPFLYTSQVGGFKPHPDSWNLGLDMNKVGVTDSPEAKQAFIKDLKGWIVAWDPVKQQEAFRVDHKGPWNGGIVATGGDLLFQGLANGEFHAYDATNGADLFHFAAQSGIIAPPVTYMANGKQYVAVEVGWGGIYPFFLGGLARTSGWTVNHSRVIAFSLDGAAKLPPQNDKGFLPVKPPAQFDGKRTDNGYFEFQTFCAACHGDNAEAGGVLPDLRWSGAIRHQDAFYNVVGRGALTAYGMDRFDASMKPEQIEDIRQFLIKRSNDTYQREVDARKNVDGIPAQ
notes: native, purified from membranes with Triton X-100; heterodimer ~72 kDa (S-I) and ~44 kDa (S-II); with Alcohol dehydrogenase (quinone), cytochrome c subunit
Km (purified protein): 76 µM
kcat/Km (purified protein): 1.8e+09 M⁻¹ s⁻¹
Km [1]: 1100 µM
kcat/Km [1]: 1e+08 M⁻¹ s⁻¹
